In PMC5080380, “Mechanical Strength and Inhibition of the Staphylococcus aureus Collagen-Binding Protein Cna” (mBio, 2016):

B1: recombinant CNA_(31–344), N1N2 subdomains of the A region of the Staphylococcus aureus collagen-binding protein Cna (domain or fragment)
chain: RDISSTNVTDLTVSPSKIEDGGKTTVKMTFDDKNGKIQNGDMIKVAWPTSGTVKIEGYSKTVPLTVKGEQVGQAVITPDGATITFNDKVEKLSDVSGFAEFEVQGRNLTQTNTSDDKVATITSGNKSTNVTVHKSEAGTSSVFYYKTGDMLPEDTTHVRWFLNINNEKSYVSKDITIKDQIQGGQQLDLSTLNINVTGTHSNYYSGQSAITDFEKAFPGSKITVDNTKNTIDVTIPQGYGSYNSFSINYKTKITNEQQKEFVNNSQAWYQEHGKEEVNGKSFNHTVHNINANAGIEGTVKGELKVLKQDKDTKA
notes: Collagen adhesin Cna of S. aureus FDA 574, residues 31 to 344 (predicted N1N2 subdomains of the A region); In the assay it was coupled covalently to the AFM tip (PEG-benzaldehyde linker) or to the substrate (NHS chemistry); source: recombinant, cloned into plasmid pQE30, purified

Columns and labels:
[1] = target: type II collagen purified from bovine nasal septum (bovine) (UniProt P02459); assay: single-cell force spectroscopy (AFM); a single living Cna^(+) S. aureus Phillips bacterium on a colloidal probe cantilever against a Cn substrate (NHS chemistry); PBS, 20°C; contact time 100 ms, 250 pN, 1,000 nm s^-1; Cna^(−) cells as control
Sequence of type II collagen purified from bovine nasal septum (bovine) (P02459 182-1241): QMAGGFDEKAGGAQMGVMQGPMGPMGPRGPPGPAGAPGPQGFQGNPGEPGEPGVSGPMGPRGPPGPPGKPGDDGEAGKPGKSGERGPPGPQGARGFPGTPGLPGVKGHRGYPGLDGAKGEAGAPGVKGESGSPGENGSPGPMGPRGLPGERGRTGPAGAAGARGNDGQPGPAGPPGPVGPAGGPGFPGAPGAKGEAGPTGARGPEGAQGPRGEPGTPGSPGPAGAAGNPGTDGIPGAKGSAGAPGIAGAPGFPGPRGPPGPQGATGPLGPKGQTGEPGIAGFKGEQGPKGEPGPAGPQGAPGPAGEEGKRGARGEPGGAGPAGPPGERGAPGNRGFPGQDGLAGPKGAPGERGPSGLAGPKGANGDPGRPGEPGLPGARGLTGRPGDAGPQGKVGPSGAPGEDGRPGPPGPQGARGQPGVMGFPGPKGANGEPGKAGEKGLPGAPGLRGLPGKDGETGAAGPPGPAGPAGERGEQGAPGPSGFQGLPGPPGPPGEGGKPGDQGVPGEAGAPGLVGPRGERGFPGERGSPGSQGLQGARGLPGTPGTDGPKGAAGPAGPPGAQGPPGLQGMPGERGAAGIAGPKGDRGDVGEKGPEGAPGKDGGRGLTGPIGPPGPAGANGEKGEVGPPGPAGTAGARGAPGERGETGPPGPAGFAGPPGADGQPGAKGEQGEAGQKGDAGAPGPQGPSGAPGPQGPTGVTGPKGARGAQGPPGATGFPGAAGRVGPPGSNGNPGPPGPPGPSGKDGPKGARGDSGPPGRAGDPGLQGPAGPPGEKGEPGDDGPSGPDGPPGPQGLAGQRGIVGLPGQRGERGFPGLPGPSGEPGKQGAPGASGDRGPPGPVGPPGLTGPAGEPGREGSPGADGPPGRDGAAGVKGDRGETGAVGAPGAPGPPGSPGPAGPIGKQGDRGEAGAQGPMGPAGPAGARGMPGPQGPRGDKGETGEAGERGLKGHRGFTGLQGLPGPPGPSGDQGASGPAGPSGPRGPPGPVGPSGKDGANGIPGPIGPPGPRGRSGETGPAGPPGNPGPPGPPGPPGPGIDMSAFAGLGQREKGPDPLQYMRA

[2] = target: type II collagen purified from bovine nasal septum (bovine) (UniProt P02459); assay: single-molecule force spectroscopy (AFM); Cn tips (NHS chemistry) on living Cna^(+) S. aureus Phillips bacteria trapped in porous membranes; PBS, 20°C; contact time 100 ms, 250 pN, 1,000 nm s^-1; Cna^(−) cells and 9G7 MAb (10 µg/ml) as controls
[3] = target: T1, type II collagen purified from bovine nasal septum (bovine, UniProt P02459 182-1241); assay: single-molecule force spectroscopy (AFM); inverse configuration: Cn on the tip and CNA_(31–344) on the substrate, both by NHS chemistry; PBS, 20°C; contact time 250 ms, 250 pN, 1,000 nm s^-1 (retraction speed varied for koff); 6 tips and substrates; conditions: both partners purified
T1 construct: Collagen type II, bovine, purified from nasal septum; collagen alpha-1(II) chain; Attached to gold-coated tips or substrates by NHS/EDC chemistry, or coated on microtiter wells; also called Cn; type II Cn; source: purified from bovine nasal septum (as described by Strawich and Nimni)
T1 sequence (P02459 182-1241): as above

[4] = target: T1, type II collagen purified from bovine …; assay: single-molecule force spectroscopy (AFM); recombinant CNA fragment on the tip at low density by a PEG-benzaldehyde linker, Cn on the substrate by NHS chemistry; PBS, 20°C; contact time 250 ms, maximum applied force 250 pN, approach and retraction speeds 1,000 nm s^-1 (retraction speed varied for the loading-rate plot and koff); 8 tips and substrates; conditions: both partners purified

| Molecule | adhesion force (single cell) [1] | fraction of force curves with adhesion force peaks [1] | strong adhesion force (single cell), cell no. 1 [1] | strong adhesion force (single cell), cell no. 2 [1] | strong adhesion force (single cell), cell no. 3 [1] | strong adhesion force (single cell), cell no. 4 [1] | strong adhesion force (single cell), cell no. 5 [1] | strong adhesion force (single cell), cell no. 6 [1] | strong adhesion forces (single cell) [1] | weak adhesion forces (single cell) [1] | strong adhesion forces (single molecule) [2] | weak adhesion forces (single molecule) [2] | koff [3] | koff [4] |
| --- | --- | --- | --- | --- | --- | --- | --- | --- | --- | --- | --- | --- | --- | --- |
| full-length collagen-binding protein Cna expressed on living Staphylococcus aureus strain Phillips cells (natural protein) | 100 to 5000 pN | 54 to 89% | 2120 pN | 3380 pN | 2500 pN | 3250 pN | 1890 pN | 3620 pN | 3160 pN | 670 pN | 1170 pN | 239 pN | – | – |
| B1 | – | – | – | – | – | – | – | – | – | – | – | – | 0.0005 s⁻¹ | 0.0002 s⁻¹ |
